Measurements published in patent US20230390362A1, “USE OF TRIGONAL AGONIST HAVING ACTIVITIES TO ALL OF GLUCAGON, GLP-1, AND GIP RECEPTORS IN TREATMENT OF SEQUELAE FOLLOWING RESPIRATORY INFECTIOUS DISEASES” (HANMI PHARM. CO., LTD., priority 2020, published 2023).
Positions of bridges follow the written chain, without caps; N, C: chain ends. Non-standard residues stand in square brackets, D forms with d. No end group written: not given here. *: point of attachment. Acetyl(2-(4-imidazolyl)) = O=C(Cc1c[nH]cn1)*; Aib = CC(C)(N)C(=O)O

T1: human GIP receptor (human, UniProt P48546 22-466)
T1 sequence (looked up): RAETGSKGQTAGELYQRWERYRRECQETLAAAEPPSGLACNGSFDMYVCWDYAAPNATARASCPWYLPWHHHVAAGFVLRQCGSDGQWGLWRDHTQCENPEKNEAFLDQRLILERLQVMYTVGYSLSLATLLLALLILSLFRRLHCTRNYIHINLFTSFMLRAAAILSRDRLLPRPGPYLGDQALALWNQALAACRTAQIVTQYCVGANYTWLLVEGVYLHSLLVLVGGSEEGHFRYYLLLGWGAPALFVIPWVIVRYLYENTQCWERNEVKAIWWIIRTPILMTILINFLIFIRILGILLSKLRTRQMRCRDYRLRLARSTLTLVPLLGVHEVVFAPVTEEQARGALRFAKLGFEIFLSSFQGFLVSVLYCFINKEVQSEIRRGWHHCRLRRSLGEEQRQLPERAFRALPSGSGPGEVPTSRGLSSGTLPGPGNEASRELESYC


Tests used:
Experiment in all cases: cell-based or functional assay
human GLP-1 receptor = human GLP-1 receptor (human, UniProt P43220 24-463)
human GCG receptor = human GCG receptor (human, UniProt P47871 26-477)
human GCG receptor, sequence (P47871 26-477): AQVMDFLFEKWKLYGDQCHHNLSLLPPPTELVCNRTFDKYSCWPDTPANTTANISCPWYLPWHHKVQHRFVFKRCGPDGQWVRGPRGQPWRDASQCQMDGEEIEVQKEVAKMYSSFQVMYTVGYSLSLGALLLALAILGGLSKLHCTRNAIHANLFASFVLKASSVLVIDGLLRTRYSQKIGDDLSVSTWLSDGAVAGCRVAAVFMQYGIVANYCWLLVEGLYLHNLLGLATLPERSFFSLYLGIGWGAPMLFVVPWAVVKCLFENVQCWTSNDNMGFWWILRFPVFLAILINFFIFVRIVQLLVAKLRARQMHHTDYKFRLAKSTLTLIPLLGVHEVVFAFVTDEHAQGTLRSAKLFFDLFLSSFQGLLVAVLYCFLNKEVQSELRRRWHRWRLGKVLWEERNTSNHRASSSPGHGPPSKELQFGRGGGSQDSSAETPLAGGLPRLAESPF

human GIP receptor = target: T1, human GIP receptor

Row | Binder | In vitro activity relative to native peptide (%), vs. GLP-1 (cAMP EC50) (human GLP-1 receptor) [%] | In vitro activity relative to native peptide (%), vs. Glucagon (cAMP EC50) (human GCG receptor) [%] | In vitro activity relative to native peptide (%), vs. GIP (cAMP EC50) (human GIP receptor) [%]
1 | {Acetyl(2-(4-imidazolyl))}-[Aib]QGTFTSDYSKYLDEKRQKEFVNWLLAQKC (bridge 15-19) [trigonal agonist of SEQ ID NO: 93] | 5.7 | 0.3 | 0.7
2 | {Acetyl(2-(4-imidazolyl))}-[Aib]QGTFTSDYSKYLDEKRQKEFVQWLLNTC (bridge 15-19) [trigonal agonist of SEQ ID NO: 81] | 7.8 | 0.3 | < 0.1
3 | {Acetyl(2-(4-imidazolyl))}-[Aib]QGTFTSDYSIAMDEIHQKDFVNWLLAQKC (bridge 15-19) [trigonal agonist of SEQ ID NO: 92] | 0.8 | < 0.1 | 0.4
4 | {Acetyl(2-(4-imidazolyl))}-[Aib]QGTFTSDYSKYLDEKRQKEFVQWLLNTKC (bridge 15-19) [trigonal agonist of SEQ ID NO: 88] | 9.6 | 0.3 | < 0.1
5 | Y[Aib]QGTFTSDYSKYLDEKRAKEFVQWLLDCHPSSGQPPPS (bridge 16-20) [trigonal agonist of SEQ ID NO: 97] | 10.5 | 62.8 | 2.6
6 | Y[Aib]QGTFTSDYSKALDEKAAKDFVNWLLDHHPSSGQPPPSC (bridge 16-20) [trigonal agonist of SEQ ID NO: 99] | 20.9 | 14.9 | 57.7
7 | {Acetyl(2-(4-imidazolyl))}-[Aib]EGTFTSDYSIAMDEIHQKDFVNWLLAQKC (bridge 15-19) [trigonal agonist of SEQ ID NO: 90] | 7.4 | < 0.1 | < 0.1
8 | {Acetyl(2-(4-imidazolyl))}-[Aib]QGTFTSDYSKYLDEKRQKEFVNWLLAQC (bridge 15-19) [trigonal agonist of SEQ ID NO: 86] | 28.4 | 0.4 | 0.2
9 | {Acetyl(2-(4-imidazolyl))}-[Aib]EGTFTSDYSIAMDEIHQKDFVDWLLAEC (bridge 15-19) [trigonal agonist of SEQ ID NO: 84] | 4.2 | < 0.1 | < 0.1
10 | {Acetyl(2-(4-imidazolyl))}-[Aib]EGTFTSDYSIAMDEIHQKDFVDWLLAEKC (bridge 15-19) [trigonal agonist of SEQ ID NO: 91] | 31.9 | 16.8 | 0.3
11 | Y[Aib]QGTFTSDYSKYLDEKRAKEFVQWLLCHHPSSGQPPPS (bridge 16-20) [trigonal agonist of SEQ ID NO: 95] | 2.1 | 0.4 | < 0.1
12 | Y[Aib]QGTFTSDYSKYLDEKRAKEFVQWLLDHCPSSGQPPPS (bridge 16-20) [trigonal agonist of SEQ ID NO: 96] | 34.4 | 195 | 5.2
13 | Y[Aib]QGTFTSDYSKALDEKAAKEFVQWLLDQHPSSGQPPPSC (bridge 16-20) [trigonal agonist of SEQ ID NO: 100] | 42.2 | 12.7 | 118
14 | Y[Aib]QGTFTSDYSKALDEKAAKEFVNWLLDHHPSSGQPPPSC (bridge 16-20) [trigonal agonist of SEQ ID NO: 98] | 28.1 | 8.2 | 47.1
15 | {Acetyl(2-(4-imidazolyl))}-[Aib]QGTFTSDYSKYLDEKRQKEFVQWLLDTC (bridge 15-19) [trigonal agonist of SEQ ID NO: 82] | 9.5 | 1.1 | < 0.1
16 | {Acetyl(2-(4-imidazolyl))}-[Aib]QGTFTSDYSIAMDEIHQKDFVNWLLNTKC (bridge 15-19) [trigonal agonist of SEQ ID NO: 94] | 0.5 | < 0.1 | < 0.1
17 | {Acetyl(2-(4-imidazolyl))}-[Aib]EGTFTSDYSIAMDEIHQKDFVNWLLAQC (bridge 15-19) [trigonal agonist of SEQ ID NO: 83] | 47.3 | 1.3 | 0.4
18 | H[Aib]EGTFTSDYSIAMDEIHQKDFVDWLLAEKC (bridge 16-20) [trigonal agonist of SEQ ID NO: 80] | 8.1 | 0 | 0.1
19 | Y[Aib]QGTFTSDYSKALDEKAAKEFVNWLLDQHPSSGQPPPSC (bridge 16-20) [trigonal agonist of SEQ ID NO: 101] | 23.2 | 13.9 | 40.1
20 | {Acetyl(2-(4-imidazolyl))}-[Aib]QGTFTSDYSIAMDEIHQKDFVNWLLAQC (bridge 15-19) [trigonal agonist of SEQ ID NO: 85] | 4.3 | < 0.1 | 0.3
21 | H[Aib]QGTFTSDVSKYLDGQAAQEFVAWLLAGC [trigonal agonist of SEQ ID NO: 9] | 32.1 | 0.13 | < 0.1
22 | {Acetyl(2-(4-imidazolyl))}-[Aib]QGTFTSDYSIAMDEIHQKDFVNWLLNTC (bridge 15-19) [trigonal agonist of SEQ ID NO: 87] | 0.9 | < 0.1 | < 0.1
23 | {Acetyl(2-(4-imidazolyl))}-[Aib]QGTFTSDYSKYLDEKRQKEFVQWLLDTKC (bridge 15-19) [trigonal agonist of SEQ ID NO: 89] | 7.1 | 0.7 | < 0.1
24 | H[Aib]QGTFTSDVSKYLDGQAAQEFVAWLLAGGGPSSGAPPPSC [trigonal agonist of SEQ ID NO: 10] | 46 | < 0.1 | < 0.1
